In patent US20220073619A1 (IMCHECK THERAPEUTICS, published 2022):

How the values were obtained:
[1] = target: Human BTN3A, membrane displayed on cells (human PBMCs, Daudi cells, SKOV-3 cells) (human), O00481; assay: cell-based or functional assay
[2] = target: T1, Human BTN3A1 His-tagged antigen (Sino Biological Cat. No. 15973-H08H) (human, UniProt O00481 30-254); assay: BLI OctetRed96, antibody loaded on FAB2G (anti-human CH1) sensors, human BTN3A1 as analyte 1.87-60 nM, 1:1 model, 30 C
T1 construct: Bought recombinant protein; also called recombinant human BTN3A1-His; not shown: His tag
Description: (§1) All runs (including loading, equilibration, association/dipping of sensors into analyte, dissociation and regeneration) were performed in black 96-well plates (Greiner) at 30° C. with shaking 1000 rpm using an OctetRed96 (ForteBio). […] The association of antibody or fragments with various concentrations of human BTN3A1 (60, 30, 15, 7.5, 3.75 and 1.87 nM) was monitored for 300 s, and the dissociation was followed for typically 500 s in kinetic buffer. Fitting of the data and constant measurements were performed with the Octet Red system software (version 7.1) using the 1:1 model. A control with an irrelevant antibody was used in order to assess the absence of non-specific binding of the target protein.

[3] = target: T1, Human BTN3A1 His-tagged antigen (Sino …); assay: SPR Biacore T200, single cycle kinetics, BTN3A1-His captured on anti-His CM5 chip, IgG as analyte, bivalent analyte model (ka 1), 25 C
Description: (§2) Human BTN3A1 His-tagged antigen (Sino Biological, Beijing, China) was diluted in running buffer to a final concentration of 0.4 μg/mL. At the start of each cycle, human BTN3A1-His was captured onto Fc2 of CM5 sensor chip pre-coupled using a His capture kit (GE Healthcare, Little Chalfont, UK) with standard amine chemistry at a flow rate of 10 μL/min. An immobilization level (RL) of ˜34 RU, 16 RU or 11 RU, the different theoretical values to obtain a RMax of ˜50 RU was used for the analytes Fab, F(ab′)₂ and IgG respectively. The surface was then allowed to stabilize. Single cycle kinetic data was obtained with the purified samples (Fab, F(ab′)₂ and IgG) at a flow rate of 40 μL/min to minimize any potential mass transfer effects. The signal from the reference channel Fc1 (no antigen capture) was subtracted from that of Fc2 to correct for differences in non-specific binding to the reference surface. The signal for human BTN3A1-His blank runs (no analyte) were subtracted to correct for differences in surface stability. The association phase for the five injections of increasing concentrations was monitored for 240 seconds each time and a single dissociation phase was measured for 1400 seconds following the last injection of analyte. Regeneration of the chip surface was conducted using two injections of 10 mM glycine-HCL pH 1.5 followed by a stabilization period of 240 seconds.

[4] = target: T1, Human BTN3A1 His-tagged antigen (Sino …); assay: SPR Biacore T200, single cycle kinetics, BTN3A1-His captured on anti-His CM5 chip, IgG as analyte, bivalent analyte model (ka 2), 25 C
Description: as §2

[5] = target: T1, Human BTN3A1 His-tagged antigen (Sino …); assay: SPR Biacore T200, single cycle kinetics, BTN3A1-His captured on anti-His CM5 chip, IgG as analyte, bivalent analyte model (kd 1), 25 C
Description: as §2

[6] = target: T1, Human BTN3A1 His-tagged antigen (Sino …); assay: SPR Biacore T200, single cycle kinetics, BTN3A1-His captured on anti-His CM5 chip, IgG as analyte, bivalent analyte model (kd 2), 25 C
Description: as §2

[7] = target: T1, Human BTN3A1 His-tagged antigen (Sino …); assay: BLI OctetRed96, Fab loaded on FAB2G (anti-human CH1) sensors, human BTN3A1 as analyte 1.87-60 nM, 1:1 model, 30 C
Description: as §1

[8] = target: T1, Human BTN3A1 His-tagged antigen (Sino …); assay: SPR Biacore T200, single cycle kinetics, BTN3A1-His captured on anti-His CM5 chip, Fab as analyte, 1:1 model, 25 C
Description: as §2

[9] = target: T1, Human BTN3A1 His-tagged antigen (Sino …); assay: as above; remark: listed apart in the source
Description: All single cycle kinetic experiments were run at 25° C. with HBS-P+ running buffer (pH 7.4) containing 0.1% BSA (GE Healthcare, Little Chalfont, UK).
Human BTN3A1 His-tagged antigen (Sino Biological, Beijing, China) was diluted in running buffer to a final concentration of 0.4 μg/mL. At the start of each cycle, BTN3A1-His was captured onto Fc2 of CM5 sensor chip pre-coupled using a His capture kit (GE Healthcare, Little Chalfont, UK) with standard amine chemistry at a flow rate of 10 μL/min. An immobilization level (RL) of ˜17 RU or 8 RU, the different theoretical values to obtain a RMax of ˜25 RU was used for the analytes Fab and F(ab′)₂ respectively. The surface was then allowed to stabilize. Single cycle kinetics data was obtained with the purified samples (Fab and F(ab′)₂)) at a flow rate of 40 μL/min to minimize any potential mass transfer effects. The signal from the reference channel Fc1 (no antigen capture) was subtracted from that of Fc2 to correct for differences in non-specific binding to the reference surface. […] The signal for BTN3A1-His blank runs (no analyte) were subtracted to correct for differences in surface stability. The association phase for the five injections of increasing concentrations was monitored for 240 seconds each time and a single dissociation phase was measured for 2000 seconds following the last injection of analyte. Regeneration of the chip surface was conducted using two injections of 10 mM glycine-HCL pH 1.5 followed by a stabilization period of 240 seconds.
Raw sensorgrams were fitted with a 1:1 model for Fab samples and with a bivalent analyte model for F(ab′)₂ samples in agreement with the different valences of the analytes. Kinetic constants obtained are detailed in Table 1 and Table 2.

[10] = target: T1, Human BTN3A1 His-tagged antigen (Sino …); assay: competition ELISA on coated BTN3A1-His, competitor murine 103.2
Description: Chimeric (VH0/Vκ0) and irrelevant human IgG4 (S241P, L248E) were tested on each plate for comparison.
BTN3A1 was diluted in 1×PBS to 0.5 μg/ml and 100 μL/well was coated overnight at 4° C. on a 96-well ELISA plate. The following day, the plate was washed 3× with 1×PBS/0.05% Tween (PBS-T) and blocked with 200 μL of 2% milk/PBS for 1 hour at room temperature. […] After washing the Nunc ELISA plate 3× with PBS-T, 100 μL of murine/test antibody mix was added to the ELISA plate. After one hour incubation at room temperature, the plate was washed 3 times with PBS-T and 100 μL of anti-mouse Fc HRP-labelled secondary antibody (Sigma, Dorset, UK) diluted 1:1000 in blocking buffer was applied for 1 hour at room temperature to detect bound murine antibody. The plate was washed 3 times with PBS-T following which 100 μL of TMB substrate was added and incubated for five minutes at room temperature. The reaction was stopped with 100 μl of 3.0 M hydrochloric acid and absorbance was read immediately using a Dynex plate reader at 450 nm.

[11] = target: T1, Human BTN3A1 His-tagged antigen (Sino …); assay: SPR Biacore T200, multi-cycle kinetics, antibody captured on Protein A, BTN3A1-His as analyte, 1:1 model
Description: Purified antibodies were diluted to a concentration of 2 μg/mL in 2% BSA/PBS. At the start of each cycle, each antibody was captured on the Protein A at a density (RL) of 146.5 RU (theoretical value to obtain an RMax of ˜50 RU). Following capture, the surface was allowed to stabilize before injection of the BTN3A1 antigen (Sino Biological cat. no. 15973-H08H). BTN3A1 was titrated in 0.1% BSA/HBS-P+(running buffer) in a two-fold dilution range from 12 to 0.375 nM. The association phase was monitored for 360 seconds and the dissociation phase for 45 minutes (2700 seconds). Kinetic data was obtained using a flow rate of 40 μL/min to minimize any potential mass transfer effects. Regeneration of the Protein A surface was conducted using two injections of 10 mM glycine-HCL pH 1.5 at the end of each cycle. Two blanks (no BTN3A1) and a repeat of a single concentration of the analyte were performed for each tested antibody to check the stability of the surface and analyte over the kinetic cycles. The chimeric antibody was run twice. The signal from the reference channel Fc1 was subtracted from that of Fc2, Fc3 and Fc4 to correct for differences in non-specific binding to a reference surface. Additionally, blank runs were subtracted for each Fc to correct any antigen-independent signal variation, such as drift. […]

T1 sequence (O00481 30-254 limits assumed): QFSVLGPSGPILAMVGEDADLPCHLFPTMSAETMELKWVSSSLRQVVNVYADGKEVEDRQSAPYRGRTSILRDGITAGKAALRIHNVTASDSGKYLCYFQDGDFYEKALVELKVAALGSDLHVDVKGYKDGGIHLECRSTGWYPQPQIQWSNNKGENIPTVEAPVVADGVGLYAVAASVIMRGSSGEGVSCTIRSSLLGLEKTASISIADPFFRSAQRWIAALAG

B1: Chimeric 103.2 antibody (VH0/Vκ0), full-length IgG (antibody, V domains shown)
VH: QVQMQQSGAEVVRPGTSVKVSCKASGYAFTSYLIHWIKQRPGQGLEWIGVINPRSGDSHYNEKFKDRTTLTADQSSSTAYMQLSSLTSDDSAVYFCARSDYGAYWGQGTLVTVSS
VL: DIVLTQSPVTLSVTPGDSVSLSCRASQSISNNLHWYRQKSHESPRLLIKYASQSIFGIPSRFSGSGSGTEFTLSINSVETEDFGIYFCQQSNSWPHTFGTGTKLELK
For B1, the % CD107+ of Vγ9Vδ2 T cells, co-culture with Daudi cells, antibody at 10 µg/mL [1] was 6.96%.

B2: Humanized 103.2 (hu103.2) full-length antibody: 103.2 VH4/Vκ4 IgG1 L247F L248E P350S dK (antibody, V domains shown)
VH: QVQMQQSGAEVKKPGASVKVSCKASGYAFTSYLIHWIKQRPGQGLEWIGVINPRSGDSHYNEKFKDRVTMTADQSISTAYMELSRLRSDDTAVYYCARSDYGAYWGQGTLVTVSS
VL: EIVLTQSPATLSVSPGERATLSCRASQSISNNLHWYQQKPGQAPRLLIKYASQSAFGIPARFSGSGSGTEFTLTISSLQSEDFAVYFCQQSNSWPHTFGQGTKLEIK
notes: also called hu103.2 (IgG)
With B2 the % CD25+ of Vγ9Vδ2 T cells within PBMCs, 67 nM, 5 days [1] was 7.9%, the % CTV dilution of Vγ9Vδ2 T cells within PBMCs, 67 nM, 5 days [1] was 9.5% and the Kd [2] was 1.44 nM. It also gave a koff [2] of 0.00028 s⁻¹, a kon [2] of 194000 M⁻¹ s⁻¹ and a kon [3] of 430000 M⁻¹ s⁻¹. For the same binder, the “ka 2” value [4] was 9.28 M⁻¹ s⁻¹, the koff [5] was 0.000352 s⁻¹ and the “kd 2” value [6] was 17.6 s⁻¹.

B3: Humanized 103.2 (hu103.2) Fab fragment (Fab, V domains shown)
VH: QVQMQQSGAEVKKPGASVKVSCKASGYAFTSYLIHWIKQRPGQGLEWIGVINPRSGDSHYNEKFKDRVTMTADQSISTAYMELSRLRSDDTAVYYCARSDYGAYWGQGTLVTVSS
VL: EIVLTQSPATLSVSPGERATLSCRASQSISNNLHWYQQKPGQAPRLLIKYASQSAFGIPARFSGSGSGTEFTLTISSLQSEDFAVYFCQQSNSWPHTFGQGTKLEIK
For B3, the % CD25+ of Vγ9Vδ2 T cells within PBMCs, 67 nM, 5 days [1] was 32.7%, the % CTV dilution of Vγ9Vδ2 T cells within PBMCs, 67 nM, 5 days [1] was 45.3% and the EC50 (nM) in Vγ9Vδ2 T cell degranulation assay (CD107) against Daudi [1] was 0.91 nM. The EC50 (nM) in Vγ9Vδ2 T cell degranulation assay (CD107) against SKOV-3 [1] was 0.08 nM, the Kd [7] was 2.43 nM and the koff [7] was 0.000419 s⁻¹. For the same binder, the kon [7] was 172000 M⁻¹ s⁻¹, the Kd [8] was 1.26 nM and the koff [8] was 0.00138 s⁻¹. The kon [8] was 1.1e+06 M⁻¹ s⁻¹.

B4: Chimeric 103.2 Fab fragment (Fab, V domains shown)
VH: QVQMQQSGAEVVRPGTSVKVSCKASGYAFTSYLIHWIKQRPGQGLEWIGVINPRSGDSHYNEKFKDRTTLTADQSSSTAYMQLSSLTSDDSAVYFCARSDYGAYWGQGTLVTVSS
VL: DIVLTQSPVTLSVTPGDSVSLSCRASQSISNNLHWYRQKSHESPRLLIKYASQSIFGIPSRFSGSGSGTEFTLSINSVETEDFGIYFCQQSNSWPHTFGTGTKLELK
In the case of B4, the % CD107+ of Vγ9Vδ2 T cells, co-culture with Daudi cells, fragment at 10 µg/mL [1] is reported as 66.7%, the Kd [9] is reported as 1.42 nM and the koff [9] is reported as 0.000782 s⁻¹. For the same binder, the kon [9] was 551000 M⁻¹ s⁻¹.

B5: 103.2 humanized variant VH4/Vκ4 (IgG4 format of the humanization screen) (antibody, V domains shown)
VH: QVQMQQSGAEVKKPGASVKVSCKASGYAFTSYLIHWIKQRPGQGLEWIGVINPRSGDSHYNEKFKDRVTMTADQSISTAYMELSRLRSDDTAVYYCARSDYGAYWGQGTLVTVSS
VL: EIVLTQSPATLSVSPGERATLSCRASQSISNNLHWYQQKPGQAPRLLIKYASQSAFGIPARFSGSGSGTEFTLTISSLQSEDFAVYFCQQSNSWPHTFGQGTKLEIK
notes: It has the same variable regions as hu103.2, which is the later IgG1 Fc-silent construct
For B5, the “IC50 relative to chimeric” value [10] was ≤ 2 fold of chimeric (VH0/Vκ0) and the “affinity (KD) relative to chimeric” value [11] was ≤ 2 fold of 103.2 chimeric (VH0/Vκ0).
